Results on 3 molecules are retold here after paper PMC9900621, “5-Formyltetrahydrofolate promotes conformational remodeling in a methylenetetrahydrofolate reductase active site and inhibits its activity” (The Journal of Biological Chemistry, 2022).

Positions count from the first letter of the chain named.

Data set [1] addresses T1, methylenetetrahydrofolate reductase (tMTHFR) (Thermus thermophilus, UniProt Q5SLG6, E18Q).
T1 construct: gene TTHA0327; recombinant, uncleavable C-terminal hexa-Histidine tag
T1 sequence (Q5SLG6 1-296 E18Q): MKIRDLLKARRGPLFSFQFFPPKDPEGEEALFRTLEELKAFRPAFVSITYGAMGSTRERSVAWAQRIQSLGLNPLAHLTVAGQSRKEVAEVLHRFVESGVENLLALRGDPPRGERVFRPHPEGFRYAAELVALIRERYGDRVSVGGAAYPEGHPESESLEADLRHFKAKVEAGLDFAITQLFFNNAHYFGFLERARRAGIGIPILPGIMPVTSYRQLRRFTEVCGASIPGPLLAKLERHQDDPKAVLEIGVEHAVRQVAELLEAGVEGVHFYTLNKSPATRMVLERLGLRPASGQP
In words: crystal structure ([…] Å, pH […]). Format: binding.

Data set [2] deals with the molecule itself. Kind of data set: crystal structure; tMTHFR cocrystallised with CHO-H4folate, FAD-replete; reservoir 0.1 M sodium acetate pH 4.5, 2.5 M NaCl, 0.2 M lithium sulfate, 1.2% myo-inositol, 4 °C; 1.45 Å.
Data set [3] concerns the molecule itself. In words: crystal structure; folate-free tMTHFR Glu18Gln, as purified, with 0.6 mM CH3-H4folate; reservoir 0.1 M Hepes pH 7.8, 1 M LiCl, 20% PEG 6000, 20 °C, hanging drop; 1.90 Å.

Regarding `Cc1cc2nc3c(=O)[nH]c(=O)nc-3n(C[C@H](O)[C@H](O)[C@H](O)COP(=O)(O)OP(=O)(O)OC[C@H]3O[C@@H](n4cnc5c(N)ncnc54)[C@H](O)[C@@H]3O)c2cc1C` [FAD], in data set [1], the “crystal structure (1.90 Å, pH 7.8)” value is “presence of a small-molecule was found in the active site near FAD”.

B1: Thermus thermophilus HB8 methylenetetrahydrofolate reductase (tMTHFR), wild type (enzyme)
chain: T1 sequence (Q5SLG6 1-296 E18Q) with Q18E
notes: Uncleavable hexa-histidine tag on the C-terminus; Crystallised FAD-replete, with or without CHO-H4folate; also called tMTHFR^wt; MTHFR^wt; not shown: His6, C-terminal, kept
For the molecule B1, in data set [2], the binding result is “binds”.

B2: Thermus thermophilus HB8 methylenetetrahydrofolate reductase Glu18Gln mutant (enzyme)
chain: T1 sequence (Q5SLG6 1-296 E18Q)
notes: methylenetetrahydrofolate reductase of Thermus thermophilus HB8 with Glu18Gln, expressed from pET(tMR^Glu18Gln-H); Uncleavable hexa-histidine tag on the C-terminus; Crystallised as purified, with 0.6 mM CH3-H4folate that could not be assigned in the density; also called tMTHFR^Glu18Gln; MTHFR^Glu18Gln; not shown: His6, C-terminal, kept
Regarding B2, in data set [3], the binding result is “binds”.
